For 40 variants, abundance fitness results are on record in the Human Domainome abundance scans (Beltran et al. 2025).

B1: Lysine-specific demethylase 2B, residues 656 to 722; numbered along this chain, Q8NHM5 (parent)
chain: LPHTAVCLVCGEAGKEDTVEEEEGKFNLMLMECSICNEIIHPGCLKIKESEGVVNDELPNCWECPKC

± gives the uncertainty stated by the source.

The variants in the data set derive from B1. Put plainly: abundance fitness (aPCA) (normalised: wild type 0, dead -1); higher = more abundant; growth selection in yeast, the domain comes from the species named. Conditions: Homo sapiens.
For LPHTAVCLVCGEAGKEDTVEEEEGKFNLMLMECSICNEIIHPGCLKIKESEGVVNDVLPNCWECPKC [E57V], the abundance fitness is -0.168 ± 0.085.
For LPHTAVCLVCGEAGKEDTVEEEEGKFNLMLMECSICNEIIHPGCLKIKESEGVVNDCLPNCWECPKC [E57C] the value was 0.036 ± 0.14; for LPHTAVCLVCGEAGKEDTVEEEEGKFNLMLMECSICNEIIHPGCLKIKESEGVVNDGLPNCWECPKC [E57G], -0.065 ± 0.062.
Under LPHTAVCLVCGEAGKEDTVEEEEGKFNLMLMECSICNEIIHPGCLKIKESEGVVNDSLPNCWECPKC [E57S] stands 0.102 ± 0.087; under LPHTAVCLVCGEAGKEDTVEEEEGKFNLMLMECSICNEIIHPGCLKIKESEGVVNDTLPNCWECPKC [E57T], -0.007 ± 0.13; under LPHTAVCLVCGEAGKEDTVEEEEGKFNLMLMECSICNEIIHPGCLKIKESEGVVNDALPNCWECPKC [E57A], 0.053 ± 0.083.
In the case of LPHTAVCLVCGEAGKEDTVEEEEGKFNLMLMECSICNEIIHPGCLKIKESEGVVNDDLPNCWECPKC [E57D], the abundance fitness is 0.103 ± 0.13.
With LPHTAVCLVCGEAGKEDTVEEEEGKFNLMLMECSICNEIIHPGCLKIKESEGVVNDMLPNCWECPKC [E57M], the abundance fitness is -0.079 ± 0.14.
In the case of LPHTAVCLVCGEAGKEDTVEEEEGKFNLMLMECSICNEIIHPGCLKIKESEGVVNDFLPNCWECPKC [E57F], the abundance fitness was -0.107 ± 0.14.
For LPHTAVCLVCGEAGKEDTVEEEEGKFNLMLMECSICNEIIHPGCLKIKESEGVVNDRLPNCWECPKC [E57R] the value was -0.055 ± 0.067; for LPHTAVCLVCGEAGKEDTVEEEEGKFNLMLMECSICNEIIHPGCLKIKESEGVVNDLLPNCWECPKC [E57L], -0.042 ± 0.087; for LPHTAVCLVCGEAGKEDTVEEEEGKFNLMLMECSICNEIIHPGCLKIKESEGVVNDYLPNCWECPKC [E57Y], -0.179 ± 0.18.
LPHTAVCLVCGEAGKEDTVEEEEGKFNLMLMECSICNEIIHPGCLKIKESEGVVNDWLPNCWECPKC [E57W]: the abundance fitness is -0.305 ± 0.11.
For LPHTAVCLVCGEAGKEDTVEEEEGKFNLMLMECSICNEIIHPGCLKIKESEGVVNDQLPNCWECPKC [E57Q] the value was -0.118 ± 0.13.
Under LPHTAVCLVCGEAGKEDTVEEEEGKFNLMLMECSICNEIIHPGCLKIKESEGVVNDHLPNCWECPKC [E57H] stands 0.001 ± 0.28.
Under LPHTAVCLVCGEAGKEDTVEEEEGKFNLMLMECSICNEIIHPGCLKIKESEGVVNDPLPNCWECPKC [E57P] stands -0.296 ± 0.18.
For the variant LPHTAVCLVCGEAGKEDTVEEEEGKFNLMLMECSICNEIIHPGCLKIKESEGVVNDILPNCWECPKC [E57I], the abundance fitness is -0.196 ± 0.16.
On to LPHTAVCLVCGEAGKEDTVEEEEGKFNLMLMECSICNEIIHPGCLKIKESEGVVNTELPNCWECPKC [D56T], for which the abundance fitness was 0.069 ± 0.083.
For LPHTAVCLVCGEAGKEDTVEEEEGKFNLMLMECSICNEIIHPGCLKIKESEGVVNYELPNCWECPKC [D56Y] the value was 0.063 ± 0.2; for LPHTAVCLVCGEAGKEDTVEEEEGKFNLMLMECSICNEIIHPGCLKIKESEGVVNRELPNCWECPKC [D56R], 0.123 ± 0.057.
Under LPHTAVCLVCGEAGKEDTVEEEEGKFNLMLMECSICNEIIHPGCLKIKESEGVVNQELPNCWECPKC [D56Q] stands -0.049 ± 0.094.
Under LPHTAVCLVCGEAGKEDTVEEEEGKFNLMLMECSICNEIIHPGCLKIKESEGVVNVELPNCWECPKC [D56V] stands -0.102 ± 0.067.
With LPHTAVCLVCGEAGKEDTVEEEEGKFNLMLMECSICNEIIHPGCLKIKESEGVVNSELPNCWECPKC [D56S], the abundance fitness is 0.07 ± 0.077.
As for LPHTAVCLVCGEAGKEDTVEEEEGKFNLMLMECSICNEIIHPGCLKIKESEGVVNWELPNCWECPKC [D56W], the abundance fitness was -0.401 ± 0.089.
Under LPHTAVCLVCGEAGKEDTVEEEEGKFNLMLMECSICNEIIHPGCLKIKESEGVVNDELPNIWECPKC [C61I] stands -0.349 ± 0.26; under LPHTAVCLVCGEAGKEDTVEEEEGKFNLMLMECSICNEIIHPGCLKIKESEGVVNDELPNMWECPKC [C61M], -0.12 ± 0.12; under LPHTAVCLVCGEAGKEDTVEEEEGKFNLMLMECSICNEIIHPGCLKIKESEGVVNDELPNFWECPKC [C61F], -0.325 ± 0.19.
For LPHTAVCLVCGEAGKEDTVEEEEGKFNLMLMECSICNEIIHPGCLKIKESEGVVNDELPNKWECPKC [C61K] the value was 0.005 ± 0.12; for LPHTAVCLVCGEAGKEDTVEEEEGKFNLMLMECSICNEIIHPGCLKIKESEGVVNDELPNNWECPKC [C61N], -0.675 ± 0.33.
Under LPHTAVCLVCGEAGKEDTVEEEEGKFNLMLMECSICNEIIHPGCLKIKESEGVVNDELPNPWECPKC [C61P] stands -0.054 ± 0.11.
For LPHTAVCLVCGEAGKEDTVEEEEGKFNLMLMECSICNEIIHPGCLKIKESEGVVNDELPNEWECPKC [C61E], the abundance fitness was -0.105 ± 0.09.
Turning to LPHTAVCLVCGEAGKEDTVEEEEGKFNLMLMECSICNEIIHPGCLKIKESEGVVNDELPNGWECPKC [C61G], the abundance fitness was -0.192 ± 0.09.
As to LPHTAVCLVCGEAGKEDTVEEEEGKFNLMLMECSICNEIIHPGCLKIKESEGVVNDELPNAWECPKC [C61A], the abundance fitness turned out to be 0.053 ± 0.096.
For LPHTAVCLVCGEAGKEDTVEEEEGKFNLMLMECSICNEIIHPGCLKIKESEGVVNDELPNLWECPKC [C61L] the value was -0.04 ± 0.1; for LPHTAVCLVCGEAGKEDTVEEEEGKFNLMLMECSICNEIIHPGCLKIKESEGVVNDELPNQWECPKC [C61Q], -0.08 ± 0.099; for LPHTAVCLVCGEAGKEDTVEEEEGKFNLMLMECSICNEIIHPGCLKIKESEGVVNDELPNHWECPKC [C61H], 0.309 ± 0.27.
Under LPHTAVCLVCGEAGKEDTVEEEEGKFNLMLMECSICNEIIHPGCLKIKESEGVVNDELPNDWECPKC [C61D] stands -0.475 ± 0.37; under LPHTAVCLVCGEAGKEDTVEEEEGKFNLMLMECSICNEIIHPGCLKIKESEGVVNDELPSCWECPKC [N60S], -0.166 ± 0.072; under LPHTAVCLVCGEAGKEDTVEEEEGKFNLMLMECSICNEIIHPGCLKIKESEGVVNDELPMCWECPKC [N60M], -0.234 ± 0.1.
Under LPHTAVCLVCGEAGKEDTVEEEEGKFNLMLMECSICNEIIHPGCLKIKESEGVVNDELPFCWECPKC [N60F] stands 0.153 ± 0.19.
